{
  "source": "paper PMC5372565",
  "about": "“Proline Residues as Switches in Conformational Changes Leading to Amyloid Fibril Formation” (International Journal of Molecular Sciences, 2017)",
  "molecules": {"B1": {"name": "stefin B P79S mutant (of the wt C3S E31-stefin B) (natural protein, human, UniProt P04080 1-98, looked up)", "chain": "MMSGAPSATQPATAETQHIADQVRSQLEEKENKKFPVFKAVSFKSQVVAGTNYFIKVHVGDEDFVHLRVFQSLPHENKSLTLSNYQTNKAKHDELTYF", "notes": "human stefin B (cystatin B), 98 amino acids, E31 variant, C3S, with P79S"}, "B2": {"name": "stefin B P11S mutant (of the wt C3S E31-stefin B) (natural protein, human, UniProt P04080 1-98, looked up)", "chain": "MMSGAPSATQSATAETQHIADQVRSQLEEKENKKFPVFKAVSFKSQVVAGTNYFIKVHVGDEDFVHLRVFQSLPHENKPLTLSNYQTNKAKHDELTYF", "notes": "human stefin B (cystatin B), 98 amino acids, E31 variant, C3S, with P11S"}, "B3": {"name": "stefin B-Y31 variant (with Y at site 31) (natural protein, human, UniProt P04080 1-98, looked up)", "chain": "MMSGAPSATQPATAETQHIADQVRSQLEEKYNKKFPVFKAVSFKSQVVAGTNYFIKVHVGDEDFVHLRVFQSLPHENKPLTLSNYQTNKAKHDELTYF", "notes": "human stefin B (cystatin B), 98 amino acids, variant with Y at site 31; Cys 3 changed to Ser 'for all in vitro studies'"}, "B4": {"name": "stefin B P6L mutant (of the wt C3S E31-stefin B) (natural protein, human, UniProt P04080 1-98, looked up)", "chain": "MMSGALSATQPATAETQHIADQVRSQLEEKENKKFPVFKAVSFKSQVVAGTNYFIKVHVGDEDFVHLRVFQSLPHENKPLTLSNYQTNKAKHDELTYF", "notes": "human stefin B (cystatin B), 98 amino acids, E31 variant, C3S, with P6L"}, "B5": {"name": "stefin B P74S mutant (of the wt C3S E31-stefin B) (protein)", "chain": "MMSGAPSATQPATAETQHIADQVRSQLEEKENKKFPVFKAVSFKSQVVAGTNYFIKVHVGDEDFVHLRVFQSLSHENKPLTLSNYQTNKAKHDELTYF"}, "B6": {"name": "stefin B-Y31 P36G mutant (natural protein, human, UniProt P04080 1-98, looked up)", "chain": "MMSGAPSATQPATAETQHIADQVRSQLEEKYNKKFGVFKAVSFKSQVVAGTNYFIKVHVGDEDFVHLRVFQSLPHENKPLTLSNYQTNKAKHDELTYF", "notes": "human stefin B (cystatin B), 98 amino acids, variant with Y at site 31, with P36G; Cys 3 changed to Ser 'for all in vitro studies'"}, "B7": {"name": "wild-type like C3S E31-stefin B (human) (natural protein, UniProt P04080 1-98, looked up)", "chain": "MMSGAPSATQPATAETQHIADQVRSQLEEKENKKFPVFKAVSFKSQVVAGTNYFIKVHVGDEDFVHLRVFQSLPHENKPLTLSNYQTNKAKHDELTYF", "notes": "human stefin B (cystatin B), 98 amino acids, E31 variant, Cys 3 changed to Ser; also called wt stefin B; wt"}, "B8": {"name": "stefin B P36D mutant (of the wt C3S E31-stefin B) (natural protein, human, UniProt P04080 1-98, looked up)", "chain": "MMSGAPSATQPATAETQHIADQVRSQLEEKENKKFDVFKAVSFKSQVVAGTNYFIKVHVGDEDFVHLRVFQSLPHENKPLTLSNYQTNKAKHDELTYF", "notes": "human stefin B (cystatin B), 98 amino acids, E31 variant, C3S, with P36D"}},
  "key": {"[1]": {"target": "stefin B-Y31 P79S mutant (human) (UniProt P04080)", "assay": "SEC; Y31 variant and its mutants; conditions not told for this experiment"}, "[2]": {"system": "P04080", "assay": "SEC; Y31 variant and its mutants; conditions not told for this experiment"}, "[3]": {"target": "the molecule itself", "assay": "SEC; Superdex 75 FPLC column, 0.5 mL/min, typically 100 uL of 50 uM protein, 10 mM potassium phosphate pH 7.0, 0.15 M NaCl; samples frozen and unfrozen once; percentages estimated from the surface area of the peaks"}, "[4]": {"target": "P04080", "assay": "SEC; Superdex 75 FPLC column, 0.5 mL/min, typically 100 uL of 50 uM protein, 10 mM potassium phosphate pH 7.0, 0.15 M NaCl; samples frozen and unfrozen once; percentages estimated from the surface area of the peaks"}, "[5]": {"target": "the molecule itself", "assay": "SEC; Y31 variant and its mutants; conditions not told for this experiment"}, "[6]": {"target": "P04080", "assay": "SEC; Y31 variant and its mutants; conditions not told for this experiment", "remark": "listed apart in the source"}},
  "note": "Where “and” joins values, the source holds several entries; their conditions need not be identical. Equal values may be shown once.",
  "data": [
    {"molecule": "stefin B-Y31 P79S mutant (from UniProt P04080 4-98) (natural protein)", "values": [
      {"measurement": "stoichiometry N", "setting": "[1]", "value": 2}
    ]},
    {"molecule": "stefin B-Y31 P79S mutant", "values": [
      {"measurement": "percent dimers (SEC)", "setting": "[2]", "value": 100, "unit": "% were dimeric"}
    ]},
    {"molecule": "B1", "values": [
      {"measurement": "stoichiometry N", "setting": "[3]", "value": "4 and 2"},
      {"measurement": "percent dimers (SEC peak area)", "setting": "[4]", "value": 55, "unit": "% dimers"},
      {"measurement": "percent higher molecular weight species (SEC peak area)", "setting": "[4]", "value": "15% of higher molecular weight species"},
      {"measurement": "percent tetramers (SEC peak area)", "setting": "[4]", "value": "around 30% tetramers"}
    ]},
    {"molecule": "B2", "values": [
      {"measurement": "binding result", "setting": "[3]", "value": "binds"}
    ]},
    {"molecule": "B3", "values": [
      {"measurement": "stoichiometry N", "setting": "[5]", "value": 2},
      {"measurement": "percent monomers (SEC)", "setting": "[6]", "value": "70% and 75% of molecules were monomers, respectively and the rest were dimers"}
    ]},
    {"molecule": "B4", "values": [
      {"measurement": "binding result", "setting": "[3]", "value": "binds"}
    ]},
    {"molecule": "B5", "values": [
      {"measurement": "percent oligomers (SEC)", "setting": "[4]", "value": "The tendency to form oligomers is high for the P74S mutant of the wt (>50%)"}
    ]},
    {"molecule": "B6", "values": [
      {"measurement": "stoichiometry N", "setting": "[5]", "value": 2},
      {"measurement": "percent monomers (SEC)", "setting": "[6]", "value": "70% and 75% of molecules were monomers, respectively and the rest were dimers"}
    ]},
    {"molecule": "B7", "values": [
      {"measurement": "stoichiometry N", "setting": "[3]", "value": "2 and 4"},
      {"measurement": "percent dimers (SEC peak area)", "setting": "[4]", "value": 65, "unit": "% dimers"},
      {"measurement": "percent higher oligomers (SEC peak area)", "setting": "[4]", "value": "10% of higher oligomers"},
      {"measurement": "percent monomers (SEC peak area)", "setting": "[4]", "value": 5, "unit": "% monomers"},
      {"measurement": "percent tetramers (SEC peak area)", "setting": "[4]", "value": 20, "unit": "% tetramers"}
    ]},
    {"molecule": "B8", "values": [
      {"measurement": "stoichiometry N", "setting": "[3]", "value": "2 and 4"}
    ]}
  ]
}
